Assay results published in patent publication US20250179186A1 (REGENTS OF THE UNIVERSITY OF MINNESOTA, published 2025).
Residue numbers refer to the chain shown, from its start.

T1: human B7-H3 expressed by Mile Sven 1 cells stably transfected to express human B7-H3 (MS1-B7-H3) (human, UniProt Q5ZPR3 29-534)
T1 construct: whole, on cells; In the FACS sorts it was used as detergent solubilized, non-specifically biotinylated MS1-B7-H3 cell lysate; also called CD276; MS1-B7-H3 cells
T1 sequence (looked up): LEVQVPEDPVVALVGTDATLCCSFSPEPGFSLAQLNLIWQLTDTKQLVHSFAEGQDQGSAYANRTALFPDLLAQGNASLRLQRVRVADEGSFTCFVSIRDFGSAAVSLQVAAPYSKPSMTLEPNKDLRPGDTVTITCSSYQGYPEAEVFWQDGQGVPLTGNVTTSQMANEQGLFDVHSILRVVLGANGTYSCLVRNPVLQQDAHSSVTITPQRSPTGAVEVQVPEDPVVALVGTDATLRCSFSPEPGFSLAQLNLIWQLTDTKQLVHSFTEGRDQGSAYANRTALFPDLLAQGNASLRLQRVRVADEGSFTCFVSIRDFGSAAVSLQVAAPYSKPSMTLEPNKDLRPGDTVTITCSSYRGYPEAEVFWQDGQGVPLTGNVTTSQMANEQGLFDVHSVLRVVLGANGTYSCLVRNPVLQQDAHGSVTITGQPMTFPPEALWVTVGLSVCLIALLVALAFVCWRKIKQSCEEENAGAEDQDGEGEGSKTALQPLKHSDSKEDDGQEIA

B1: Gp2 1.4.3 (designed binder)
chain: KFWATVQHVYSDFGFEVPVYAATLDEALQLAEVRYANSIFMVTRVRPHHHHHH
notes: Purified from E. coli (pET-24b, NheI/BamHI cloning)
B2: Gp2 1.4.4 (designed binder)
chain: B1 chain with V17A, R34Q, M41T
notes: as for B1
B3: Gp21.4.4-L15-SrtA (designed binder)
chain: KFWATVQHVYSDFGFEAPVYAATLDEALQLAEVQYANSIFTVTRVRPGSGGGSGGGKGGGGTQAKPQIPKDKSKVAGYIEIPDADIKEPVYPGPATPEQLNRGVSFAEENESLDDQNISIAGHTFIDRPNYQFTNLKAAKKGSMVYFKVGNETRKYKMTSIRDVKPTDVGVLDEQKGKDKQLTLITCDDYNEKTGVWEKRKIFVATEVKHHHHHH
notes: range 60-206; also called Gp2-L15-SrtA fusion; Gp2 fusion construct

Assays:
[1] = target: T1, human B7-H3 expressed by Mile Sven 1 …; assay: flow cytometry titration of purified His6-tagged Gp2 on MS1-B7-H3 cells, anti-His6 FITC, 1:1 model
[2] = target: T1, human B7-H3 expressed by Mile Sven 1 …; assay: flow cytometry titration of purified His6-tagged fusion on MS1-B7-H3 cells, anti-His6 FITC, 1:1 model

Row | Binder | Kd [1] [nM] | Kd [2] [nM]
1 | B1 | 3.4 | –
2 | B2 | 1 | –
3 | B3 | – | 1.8
